The text below walks through data of US7135319 (Pfizer, dated 2006).

This assay deals with T1, B. subtilis Acyl Carrier Protein Synthase (ACPS), holo-[acyl carrier protein] synthase (B. subtilis, UniProt P96618 3-121, limits assumed).
T1 construct: A trimer of ACPS was the molecular replacement probe; three ACPS molecules per asymmetric unit; also called A1; B1
T1 sequence: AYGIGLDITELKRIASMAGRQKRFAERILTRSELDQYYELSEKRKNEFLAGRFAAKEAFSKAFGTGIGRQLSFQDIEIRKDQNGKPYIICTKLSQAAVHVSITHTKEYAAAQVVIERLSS
In words: gel filtration of the mixed proteins, complex purified and crystallized. Here is the method:
Crystallization of ACPS with ACP Purified ACP and ACPS were mixed at a 1:1.1 molar ratio and the mixture was loaded onto a gel filtration column. The resulting purified complex was dialyzed against a solution containing 50 mM Bis-Tris pH 6.4, 100 mM NaCl, 10 mM MgCl_2, and 10 mM DTT before concentrating the complex to ~10 mg/mL. Crystallization conditions for the ACP/ACPS complex were also determined using the sparse matrix screens available from both Hampton Research and Emerald Biostructures. Screens were set up with 2 μL drops at both 18° C. and 4° C. Optimization of a crystalline hit (0.2M Potassium Formate, 20% PEG 3350) gave diffraction quality rod shaped crystals. Crystals could be obtained between 0.15M and 0.3M Potassium Formate and between 15 and 23% PEG 3350. The rate of growth seriously affected the quality of crystals with the optimal crystals being formed between 8 and 12 days after setup. The crystals were grown with a 1:2 drop ratio of protein to well solution at 18° C. These crystals belonged to space group C222_1 with unit cell parameters a=78.46, b=122.03, c=136.77 Å and contained three molecules of ACPS and three molecules of ACP in the asymmetric unit.

B1: B. subtilis Acyl Carrier Protein (ACP), holo form (other)
chain: GPLGSADTLERVTKIIVDRLGVDEADVKLEASFKEDLGADSLDVVELVMELEDEFDMEISDEDAEKIATVGDAVNYIQNQQ
modifications: phosphopantetheinyl group attached to the O-gamma of Ser-36
notes: also called holo-ACP; AP1
As to B1, the binding result is listed as “binds”.
